# Results reported in patent publication US20240043537A1 (MacroGenics, published 2024).
# Positions count from the first letter of the chain named.
# T1: 5T4 on A498 cells (UniProt Q13641 32-420, limits assumed)
# T1 construct: whole, on cells; also called 5T4-expressing A498 cells; A-498 kidney carcinoma (5T4)
# T1 sequence (looked up): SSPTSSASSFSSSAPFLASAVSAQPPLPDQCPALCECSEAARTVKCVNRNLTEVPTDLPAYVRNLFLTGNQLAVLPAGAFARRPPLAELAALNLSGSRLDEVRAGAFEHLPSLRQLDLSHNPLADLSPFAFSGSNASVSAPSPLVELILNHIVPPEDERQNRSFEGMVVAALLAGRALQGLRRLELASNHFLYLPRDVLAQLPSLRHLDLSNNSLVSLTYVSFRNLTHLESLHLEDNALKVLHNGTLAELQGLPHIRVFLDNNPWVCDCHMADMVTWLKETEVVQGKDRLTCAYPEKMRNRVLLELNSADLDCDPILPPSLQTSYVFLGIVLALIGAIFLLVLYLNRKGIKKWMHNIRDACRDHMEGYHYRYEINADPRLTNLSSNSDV
# B1: DART-A-M23 (bispecific antibody)
# chain 1: DFVMTQSPDSLAVSLGERVTMSCKSSQSLLNSGNQKNYLTWYQQKPGQPPKLLIYWASTRESGVPDRFSGSGSGTDFTLTISSLQAEDVAVYYCQNDYSYPYTFGQGTKLEIKGGGSGGGGEVQLVESGGGLVQPGGSLRLSCAASGFTFSTYAMNWVRQAPGKGLEWVGRIRSKYNNYATYYADSVKDRFTISRDDSKNSLYLQMNSLKTEDTAVYYCVRHGNFGNSYVSWFAYWGQGTLVTVSSGGCGGGKVAALKEKVAALKEKVAALKEKVAALKE
# chain 2: QAVVTQEPSLTVSPGGTVTLTCRSSTGAVTTSNYANWVQQKPGQAPRGLIGGTNKRAPWTPARFSGSLLGGKAALTITGAQAEDEADYYCAEWYSNLWVFGGGTKLTVLGGGGSGGGGEVQLVQSGAELKKPGASVKVSCKASGYTFTDYYMKWVRQAPGQGLEWIGDIIPSNGATFYNQKFKGRVTITVDKSTSTAYMELSSLRSEDTAVYYCARSHLLRASWFAYWGQGTLVTVSSGGCGGGEVAALEKEVAALEKEVAALEKEVAALEK
# notes: also called CD123 x CD3 DART-A-type diabody with CD3 mAb 1 M23
# B2: DART-A-WT (bispecific antibody)
# chain 1: B1 chain 1
# chain 2: B1 chain 2 with E92L
# notes: Two-chain diabody without Fc; Kabat position 65 of the CD3 VH is D; also called CD3 Mab-1; Wild-Type
# B3: DART-A-M26 (bispecific antibody)
# chain 1: B1 chain 1
# chain 2: B1 chain 2 with K55G, E92L
# notes: also called CD123 x CD3 DART-A-type diabody with CD3 mAb 1 M26
# B4: DART-A-M24 (bispecific antibody)
# chain 1: B1 chain 1
# chain 2: B1 chain 2 with E92Q
# notes: also called CD123 x CD3 DART-A-type diabody with CD3 mAb 1 M24
# B5: DART-A-M25 (bispecific antibody)
# chain 1: B1 chain 1
# chain 2: B1 chain 2 with G52D, E92L
# notes: also called CD123 x CD3 DART-A-type diabody with CD3 mAb 1 M25
# B6: 5T4-WT (bispecific antibody)
# chain 1: DIQMTQSPSSLSASVGDRVTITCRASQGISNYLAWFQQKPGKAPKSLIYRANRLQSGVPSRFSGSGSGTDFTLTISSLQPEDVATYYCLQYDDFPWTFGQGTKLEIKGGGSGGGGEVQLVESGGGLVQPGGSLRLSCAASGFTFSTYAMNWVRQAPGKGLEWVGRIRSKYNNYATYYADSVKGRFTISRDDSKNSLYLQMNSLKTEDTAVYYCVRHGNFGNSYVSWFAYWGQGTLVTVSSGGCGGGEVAALEKEVAALEKEVAALEKEVAALEKGGGDKTHTCPPCPAPEAAGGPSVFLFPPKPKDTLMISRTPEVTCVVVDVSHEDPEVKFNWYVDGVEVHNAKTKPREEQYNSTYRVVSVLTVLHQDWLNGKEYKCKVSNKALPAPIEKTISKAKGQPREPQVYTLPPSREEMTKNQVSLWCLVKGFYPSDIAVEWESNGQPENNYKTTPPVLDSDGSFFLYSKLTVDKSRWQQGNVFSCSVMHEALHNHYTQKSLSLSPGK
# chain 2: QAVVTQEPSLTVSPGGTVTLTCRSSTGAVTTSNYANWVQQKPGQAPRGLIGGTNKRAPWTPARFSGSLLGGKAALTITGAQAEDEADYYCALWYSNLWVFGGGTKLTVLGGGGSGGGGQVQLVQSGAEVKKPGASVKVSCKASGYTFTSFWMHWVRQAPGQGLEWMGRIDPNRGGTEYNEKAKSRVTMTADKSTSTAYMELSSLRSEDTAVYYCAGGNPYYPMDYWGQGTTVTVSSGGCGGGKVAALKEKVAALKEKVAALKEKVAALKE
# chain 3: not shown
# notes: Three-chain diabody with Fc; Kabat position 65 of the CD3 VH is G in this construct; also called 5T4 x CD3 mAb 1 DART-B-type diabody
# B7: 5T4-M1 (bispecific antibody)
# chain 1: B6 chain 1 with G183D, S225T
# chain 2: B6 chain 2
# chain 3: not shown
# notes: Three-chain diabody with Fc; also called 5T4 x CD3 mAb 1 M1 DART-B-type diabody
# B8: 5T4-M2 (bispecific antibody)
# chain 1: B6 chain 1 with G183D, G217K, S225T
# chain 2: B6 chain 2
# chain 3: not shown
# notes: Three-chain diabody with Fc; also called 5T4 x CD3 mAb 1 M2 DART-B-type diabody
# B9: 5T4-M18 (bispecific antibody)
# chain 1: B6 chain 1 with A148G, G183D
# chain 2: B6 chain 2
# chain 3: not shown
# notes: Three-chain diabody with Fc; also called 5T4 x CD3 mAb 1 M18 DART-B-type diabody
# Experiments:
# [1] = biological target: T2, CD3 (as used for the BIACORE kinetics of Table 11) (UniProt P07766 23-126); assay: SPR (BIACORE)
# T2 construct: CD3 mAb 1 is described as an anti-human CD3 antibody
# Experimental: Variants of the CD123×CD3 DART-A-type diabody (designated DART-A-WT; amino acid sequences provided above) were generated comprising the VH and VL Domains of the identified scFvs. Thus, a panel of DART-A-type diabodies, designated DART-A-M1-DART-A-M26, comprising vCD3-Binding Domains (such vCD3-Binding Domains being respectively designated “CD3 mAb 1 M1-CD3 mAb 1 M26”) were generated. The CD3-binding kinetics of DART-A-M1-DART-A-M26 were measured by BIACORE® and compared to DART-A-WT. Table 11 summarizes the CD3-binding kinetics of DART-A-WT and the DART-A-type diabodies comprising the vCD3-Binding Domains of CD3 mAb 1 M1-CD3 mAb 1 M26, ranked by kₐ (R denotes kₐ, kd, or kD ratio of variant DART-A-type diabody (comprising a vCD3-Binding Domain) to DART-A-WT (comprising the rCD3-Binding Domain of CD3 mAb 1)).
# [2] = biological target: CD3 on T-cells (UniProt P07766 23-207); assay: cell-based or functional assay
# [3] = biological target: soluble human CD3 (human, UniProt P07766 23-126); assay: SPR (BIAcore), diabody over immobilized human CD3
# Experimental: The ability of the CD123-binding diabodies: CD123-WT, CD123-M1, CD123-M2 and CD123-M18 to bind to human CD3 and CD123 was also evaluated using BIAcore®. […] Table 14 presents the calculated kₐ, kd and KD from these studies.
# The ability of the 5T4-binding diabodies: 5T4-WT, 5T4-M1, 5T4-M2 and 5T4-M18 to bind to CD3 was also evaluated using BIAcore®, as described above. Table 15A presents the calculated kₐ, kd and KD.
# [4] = biological target: T1, 5T4 on A498 cells; assay: Flow cytometry on A498 cells; detection with biotinylated anti-E/K-coil antibody and streptavidin-PE
# Experimental: FIG. 9A-9B show the ability of DART-B-type diabodies to bind to Disease Antigens. […] Binding was detected using biotinylated antibody specific for the diabodies' E/K coils and streptavidin-phycoerythrin (PE).
# The ability of such diabodies to bind to their respective Disease Antigen (i.e., CD123 or 5T4) on the surface of MOLM-13 leukemia (CD123) or A-498 kidney carcinoma (5T4) target cancer cells was assessed using FACS. Briefly, cells were incubated with the diabody molecules (in FACS buffer containing 10% human AB serum) in microtiter plates. The cells were washed and incubated with biotin-conjugated mouse anti-EK-coil antibody that recognizes the E-coil/K-coil (EK) Heterodimer-Promoting Domain of the diabodies mixed with streptavidin-phycoerythrin.
# CD3 on T-cells, sequence (P07766 23-207): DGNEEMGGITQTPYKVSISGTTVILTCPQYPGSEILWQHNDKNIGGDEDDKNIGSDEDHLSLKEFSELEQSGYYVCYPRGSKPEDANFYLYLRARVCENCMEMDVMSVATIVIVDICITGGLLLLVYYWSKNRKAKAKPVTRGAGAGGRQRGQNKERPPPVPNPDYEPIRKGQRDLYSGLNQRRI
# soluble human CD3, sequence (P07766 23-126): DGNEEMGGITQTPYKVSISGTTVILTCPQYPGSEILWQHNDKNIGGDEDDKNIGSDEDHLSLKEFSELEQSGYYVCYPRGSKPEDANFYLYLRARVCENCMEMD
# T2 sequence (P07766 23-126): as above
Binder,Kd [1] [nM],R (KD ratio to DART-A-WT) [1],R (ka ratio to DART-A-WT) [1],R (kd ratio to DART-A-WT) [1],koff [1] [s⁻¹],kon [1] [M⁻¹ s⁻¹],"EC50 of cytolysis at 18 hours (CTL assay, Pan-T-cells and MOLM-13, E:T = 5:1) [2] [ng/mL]","EC50 of cytolysis at 42 hours (CTL assay, Pan-T-cells and MOLM-13, E:T = 5:1) [2] [ng/mL]","R: ratio of 18 hour EC50 to DART-A-WT (CTL assay, Pan-T-cells and MOLM-13, E:T = 5:1) [2] [ratio]","R: ratio of 42 hour EC50 to DART-A-WT (CTL assay, Pan-T-cells and MOLM-13, E:T = 5:1) [2] [ratio]","max % CytoTox at 18 hours (CTL assay, Pan-T-cells and MOLM-13, E:T = 5:1) [2] [%]","max % CytoTox at 42 hours (CTL assay, Pan-T-cells and MOLM-13, E:T = 5:1) [2] [%]",Kd [3] [nM],koff [3] [s⁻¹],kon [3] [M⁻¹ s⁻¹],EC50 (read off the curve) [4] [nM]
B1,26.9,3.3,0.9,3,0.0124,459000,0.421,0.061,5.3,21.6,49.3,31.4,,,,
B2,8.17,1,1,1,0.00409,500000,0.079,0.003,1,1,39,29.1,,,,
B3,54.4,6.7,0.6,4.3,0.0174,319000,0.444,0.078,5.6,27.9,44.2,28.2,,,,
B4,14.5,1.8,1.2,2.1,0.00861,594000,0.34,0.031,4.3,11.1,49.4,31.1,,,,
B5,125,15,0.3,4.7,0.0192,154000,0.585,0.1,7.4,35.7,46.6,30.4,,,,
B6,,,,,,,,,,,,,36,0.0054,150000,~1
B7,,,,,,,,,,,,,326,0.031,95000,~1
B8,,,,,,,,,,,,,118,0.041,350000,~1
B9,,,,,,,,,,,,,453,0.034,75000,~1
